Assay results as given in IntAct's records for PubMed 9428768.

B1: Cell division control protein 24 (Saccharomyces cerevisiae), P11433 (parent)
chain: MAIQTRFASGTSLSDLKPKPSATSISIPMQNVMNKPVTEQDSLFHICANIRKRLEVLPQLKPFLQLAYQSSEVLSERQSLLLSQKQHQELLKSNGANRDSSDLAPTLRSSSISTATSLMSMEGISYTNSNPSATPNMEDTLLTFSMGILPITMDCDPVTQLSQLFQQGAPLCILFNSVKPQFKLPVIASDDLKVCKKSIYDFILGCKKHFAFNDEELFTISDVFANSTSQLVKVLEVVETLMNSSPTIFPSKSKTQQIMNAENQHRHQPQQSSKKHNEYVKIIKEFVATERKYVHDLEILDKYRQQLLDSNLITSEELYMLFPNLGDAIDFQRRFLISLEINALVEPSKQRIGALFMHSKHFFKLYEPWSIGQNAAIEFLSSTLHKMRVDESQRFIINNKLELQSFLYKPVQRLCRYPLLVKELLAESSDDNNTKELEAALDISKNIARSINENQRRTENHQVVKKLYGRVVNWKGYRISKFGELLYFDKVFISTTNSSSEPEREFEVYLFEKIIILFSEVVTKKSASSLILKKKSSTSASISASNITDNNGSPHHSYHKRHSNSSSSNNIHLSSSSAAAIIHSSTNSSDNNSNNSSSSSLFKLSANEPKLDLRGRIMIMNLNQIIPQNNRSLNITWESIKEQGNFLLKFKNEETRDNWSSCLQQLIHDLKNEQFKARHHSSTSTTSSTAKSSSMMSPTTTMNTPNHHNSRQTHDSMASFSSSHMKRVSDVLPKRRTTSSSFESEIKSISENFKNSIPESSILFRISYNNNSNNTSSSEIFTLLVEKVWNFDDLIMAINSKISNTHNNNISPITKIKYQDEDGDFVVLGSDEDWNVAKEMLAENNEKFLNIRLY
partner: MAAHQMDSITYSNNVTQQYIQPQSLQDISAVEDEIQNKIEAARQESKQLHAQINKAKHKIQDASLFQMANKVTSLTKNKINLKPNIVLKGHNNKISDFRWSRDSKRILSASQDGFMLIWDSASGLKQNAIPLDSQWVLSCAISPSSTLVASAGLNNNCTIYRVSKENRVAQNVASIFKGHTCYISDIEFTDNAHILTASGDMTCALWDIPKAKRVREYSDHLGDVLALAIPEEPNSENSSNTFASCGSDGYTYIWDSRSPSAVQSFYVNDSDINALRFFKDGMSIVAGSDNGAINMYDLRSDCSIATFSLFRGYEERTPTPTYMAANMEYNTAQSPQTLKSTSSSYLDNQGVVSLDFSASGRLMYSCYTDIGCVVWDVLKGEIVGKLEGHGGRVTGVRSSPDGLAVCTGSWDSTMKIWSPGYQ

Variants of: B1
Settings: with gbb_yeast STE4, P18851

effect of a mutation on the interaction | Variant
disrupting interaction | S189F
